{"source": "patent US20200239537", "key": {"[1]": {"system": "apelin-17 (2)"}, "[2]": {"system": "N-MeLeu9-apelin-17 A2 (11)"}, "[3]": {"system": "apelin-17 A2 (5)"}}, "data": [{"substance": "recombinant human plasma kallikrein KLKB1 (rhKLKB1, Novoprotein)", "values": [{"measurement": "Km", "setting": "[1]", "result": 97, "unit": "µM"}, {"measurement": "kcat (1/S)", "setting": "[1]", "result": "13.7 1/S"}, {"measurement": "kcat/Km (1/MS)", "setting": "[1]", "result": "140000 1/MS"}, {"measurement": "Km", "setting": "[2]", "result": 245, "unit": "µM"}, {"measurement": "kcat (1/S)", "setting": "[2]", "result": "16.5 1/S"}, {"measurement": "kcat/Km (1/MS)", "setting": "[2]", "result": "67000 1/MS"}, {"measurement": "Km", "setting": "[3]", "result": 30, "unit": "µM"}, {"measurement": "kcat (1/S)", "setting": "[3]", "result": "1.4 1/S"}, {"measurement": "kcat/Km (1/MS)", "setting": "[3]", "result": "47000 1/MS"}]}]}
